From paper PMC12127727, “Double the Double: Revisiting BCL11B's Multimerization” (Proteins, 2025)
Residue numbers refer to the chain shown, from its start. Numbers in names are those of the source.

B1: BCL11B_(42–94) WT (N-terminal wild-type zinc finger domain, ZF0) (domain or fragment, human, UniProt Q9C0K0 42-94, looked up)
chain: SGLGLMVGGPDPDLLTCGQCQMNFPLGDILVFIEHKRKQCGGSLGACYDKALD
notes: B Cell Lymphoma/Leukemia 11B (BCL11B), human, residues 42-94, atypical CCHC zinc finger domain ZF0; source: E. coli, recombinantly expressed, purified
B2: BCL11B_(42–94) L71A/V72A (domain or fragment, human, UniProt Q9C0K0 42-94, looked up)
chain: B1 chain with L30A, V31A
notes: BCL11B, human, residues 42-94 (ZF0) with L71A and V72A; also called double mutant L71A/V72A; source: E. coli, recombinantly expressed, purified
B3: BCL11B_(42–94) C81H (domain or fragment, human, UniProt Q9C0K0 42-94, looked up)
chain: B1 chain with C40H
notes: BCL11B, human, residues 42-94 (ZF0) with C81H, which turns the CCHC zinc finger into a C2H2 zinc finger; also called zinc finger mutant C81H; source: E. coli, recombinantly expressed, purified
B4: BCL11B_(42–94) K77A (domain or fragment, human, UniProt Q9C0K0 42-94, looked up)
chain: B1 chain with K36A
notes: BCL11B, human, residues 42-94 (ZF0) with K77A; also called lysine mutant K77A; source: E. coli, recombinantly expressed, purified
B5: BCL11B_(42–94) I74A (domain or fragment, human, UniProt Q9C0K0 42-94, looked up)
chain: B1 chain with I33A
notes: BCL11B, human, residues 42-94 (ZF0) with I74A; CD spectra indicate an incomplete zinc finger fold; source: E. coli, recombinantly expressed, purified
B6: BCL11B_(42–94) I70A (domain or fragment, human, UniProt Q9C0K0 42-94, looked up)
chain: B1 chain with I29A
notes: BCL11B, human, residues 42-94 (ZF0) with I70A; CD spectra indicate an incomplete zinc finger fold; source: E. coli, recombinantly expressed, purified
B7: BCL11B_(42–220) WT (domain or fragment, human, UniProt Q9C0K0 42-220, looked up)
chain: SGLGLMVGGPDPDLLTCGQCQMNFPLGDILVFIEHKRKQCGGSLGACYDKALDKDSPPPSSRSELRKVSEPVEIGIQVTPDEDDHLLSPTKGICPKQENIAGPCRPAQLPAVAPIAASSHPHSSVITSPLRALGALPPCLPLPCCSARPVSGDGTQGEGQTEAPFGCQCQLSGKDEPSS
notes: BCL11B, human, residues 42-220: ZF0 extended up until the first C2H2 zinc finger domain (ZF1); source: E. coli, recombinantly expressed, purified
B8: BCL11B_(42–426) WT (domain or fragment, human, UniProt Q9C0K0 42-426, looked up)
chain: SGLGLMVGGPDPDLLTCGQCQMNFPLGDILVFIEHKRKQCGGSLGACYDKALDKDSPPPSSRSELRKVSEPVEIGIQVTPDEDDHLLSPTKGICPKQENIAGPCRPAQLPAVAPIAASSHPHSSVITSPLRALGALPPCLPLPCCSARPVSGDGTQGEGQTEAPFGCQCQLSGKDEPSSYICTTCKQPFNSAWFLLQHAQNTHGFRIYLEPGPASSSLTPRLTIPPPLGPEAVAQSPLMNFLGDSNPFNLLRMTGPILRDHPGFGEGRLPGTPPLFSPPPRHHLDPHRLSAEEMGLVAQHPSAFDRVMRLNPMAIDSPAMDFSRRLRELAGNSSTPPPVSPGRGNPMHRLLNPFQPSPKSPFLSTPPLPPMPPGGTPPPQPPAKS
notes: source: E. coli, recombinantly expressed, purified

Target: the molecule itself
Experiment: cross-linking; constructs incubated with BS(PEG)5 (bis-succinimide ester-activated PEG, 21.7 Å), then reducing 16% tricine SDS-PAGE of crosslinked and control samples

Row | Protein | stoichiometry N
1 | B1 | 4
2 | B2 | 4
3 | B3 | 4
4 | B4 | 2
5 | B5 | 2
6 | B6 | 2

Target: the molecule itself
Experiment: SEC; analytical size exclusion chromatography of the purified recombinant constructs; stoichiometric factors calculated from elution volumes with a calibration curve (Figure S1); rough estimate of molecular weights

Row | Protein | stoichiometry N
7 | B7 | 16.6
8 | B8 | 4
9 | B1 | 7
